system: Saccharomyces cerevisiae PS128 hsf1 delta, HSF1(1-493) fusion; assay: growth estimate (transactivation domain function in HSF1 fusion, heat-shock survival) (a.u. (slope of normalised read count over time)); higher = stronger growth at 37°C, i.e. more transactivation activity; conditions: library: design library
Procedure, shortened: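 The growth estimate is the slope, from a robust linear fit over time, of read counts scaled to sample totals and starting count. These counts came from Illumina MiSeq sequencing of PCR-amplified inserts, run as six barcoded replicates of one experiment. The inserts encoded designed transactivation-domain oligos fused to yeast HSF1 (amino acids 1–493) in an hsf1-deleted strain, replica-plated on –trp 5-FOA plates and incubated at 30°C or 37°C for 0, 2, 4, 6 and 8 days.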

Compared with VADDIWERLLSEDL, VADDIWKELLSEDL is higher in growth estimate: 2.04 for the first, 3.97 for the second.

First: VADDIWPELLSEDL
Second: VADDIWRELLSEDL
The growth estimate of the first is lower: 0.612 for the first, 7.56 for the second.

Compared with VADDKWEELLSEDL, VADDPWEELLSEDL is higher in growth estimate: -0.236 for the first, -0.214 for the second.

Compared with VADDRWEELLSEDL, VADGIWEELLSEDL is higher in growth estimate: under -0.25 for the first, -0.0444 for the second.

Going from VADKIWEELLSEDL to VADPIWEELLSEDL, the growth estimate rises from -0.0109 to 0.903.

First: VADRIWEELLSEDL
Second: VAGDIWEELLSEDL
The growth estimate of the first is lower: -0.176 for the first, 0.447 for the second.

Compared with VAKDIWEELLSEDL, VAPDIWEELLSEDL is lower in growth estimate: 6.26 for the first, 3.05 for the second.

Going from VARDIWEELLSEDL to VGDDIWEELLSEDL, the growth estimate falls from 2.59 to 1.59.

Going from VKDDIWEELLSEDL to VRDDIWEELLSEDL, the growth estimate rises from -0.23 to 0.609.

Source: the supplement of paper PMC5949888
